Measurements published in the nanobody polyreactivity screen of Harvey et al. (2022).

Test: yeast display, Sf9 membrane polyspecificity reagent, FACS + sequencing; frameworks hold sequencing errors
Outline: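 Galactose-induced (36–48 hours) yeast carrying a synthetic nanobody display library were exposed to 10% biotinylated, detergent-solubilized Sf9 membrane reagent at 4 °C for 1 hour. FACS followed streptavidin microbead enrichment, using low and high (top ~1%) gates for expression (anti-HA) and reagent binding (streptavidin). Colony PCR, MiSeq 2 × 250 sequencing and CDR-length filtering followed. Labels for polyreactivity reflect the gate of origin.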

Sequence	polyreactivity (PSR sort gate)
QVQLVESGGGLVQAGCSLRLSCAASGIIYINYAMGWYRQAPGKERELVAVITRGGSTYYADSVKGRFTISRDNAKNTVYLLMNSLKPEDTAVYYCNARYLSWWTGRFNYWGQGTQVTVSS	high polyreactivity
QVQLVESGGGLVQAGCSLRLSCAASGITFTEYAMGWSRQAPGKERELGATISYGGGITYYADSVKGRFTISRDNAKNTVYLQMNSLKPEDTAVYYCAADGLSQVQRGMDYWGQGTQVTVSS	low polyreactivity
QVQLVESGGGLVQAGCSLRLSCAASGLIFPGYDMGWYRQAPGKERELVADISDSGANTYYADSVKGRFTISRDNAKNTVYLQMNSLKPEDTAVYYCAADSSWWYGTSFGRFDYWGQGTQVTVSS	low polyreactivity
QVQLVESGGGLVQAGCSLRLSCAASGLIFRSYAMGWYRQAPGKERELFARISIRGGSTYYADSVKGRFTISRDNAKNTVYLQMNSLKPEDTAVYYCAARPKNNWARTKYGIRYNYWGQGTQVTVSS	high polyreactivity
QVQLVESGGGLVQAGCSLRLSCAASGLIFYYYAMGWYRQAPGKERELVAAITSDDRTYYADSVKGRFTISRDNAKNTVYLQMNSLKPEDTAVYYCAARYHGYLAQYRKYGYGYWGQGTQVTVSS	high polyreactivity
QVQLVESGGGLVQAGCSLRLSCAASGLIIPVYVMGWYRQAPGKERELVADITTVGSTYADSVKGRFTISRDNAKNTVYFQMNSLKPEDTAVYYFADDPPAQQYWWDHGNYWGQGTQVTVSS	low polyreactivity
QVQLVESGGGLVQAGCSLRLSCAASGRTFGVYAMGWYRQAPGKERELVAGIRWRGGSTYYADSVKGRFTISRDNAKNTVYLQMNSLKPEDTAVYYCAADVYLVKYDYWGQGTQVTVSS	low polyreactivity
QVQLVESGGGLVQAGCSLRLSCAASGRTFRSDNSMGWYRQSPGKQRELVAAISQGGGTYYADSVKGRFTISRDNAKNTVYLLMNSLIPEDTAVYYCARDAFYADPSLWYYTYDFWGQGTQETVSS	low polyreactivity
QVQLVESGGGLVQAGCSLRLSCAASGRTFYFYTMGWYRQAPGKVRELVAAISWSGGSTYYADSVKGRFTISRDNAKYTVYLQMNSLKPEDTAVYYCNAVFFKGSESGLDYWGQGTQVTVSS	high polyreactivity
QVQLVESGGGLVQAGCSLRLSCAASGRTFYYNAMGWYRQAPGKERELVAAITRSGSSTYYADSVKGRFTISRDNAKNTVYLQMNSLKPEDTAVYYCAARVGDAYYYWGQGTQVTVSS	high polyreactivity
QVQLVESGGGLVQAGCSLRLSCAASGRTLGWNAMGWYRQAPGKERELVAAISSSTSTYYADSVKGRFTISRDNAKNTVYLQMNSLKPEDTAVYYCAALYWGQGTQVTVSS	low polyreactivity
QVQLVESGGGLVQAGCSLRLSCAASGRTLKYNAMGGYIQAPGKERELVAAISRSGGRLYYADSVKGRFTMSRDNAKNTVYLQMNSLKPEDTAVYYCAKDRSGSYYNFPEYDYWGQGTQVTVSS	high polyreactivity
QVQLVESGGGLVQAGCSLRLSCAASGSIFEPYVMGWYRQAPGKERELVAAIRQTGGSTYYADSVKGRFKISRDNAKNTVYLQMNSLKPEDNAFYYCNAEHNPSGLYDYRGVECEMGYWGQGNQVTVSS	low polyreactivity
QVQLVESGGGLVQAGCSLRLSCAASGSIFPANAMGWYRQAPGKEWEFVAAINWSTGTTYNADSVKGRFTISRDNAKNTVYLQMTSLKPEDTAFYHCAAGDWYSGNTTHFYYWGQGTQVTVSS	low polyreactivity
QVQLVESGGGLVQAGCSLRLSCAASGSIFYQYSMGWYRQAPGKERELVAAITWDGSRTYYADSVKGRFTISRDNAKNSVYLQMNSLKPEDTSVYYSNAVTRYSLFDYWGLGTQVTVSS	high polyreactivity
QVQLVESGGGLVQAGCSLRLSCAASGSIYLVNAMGWYRQAPGKERELVAAIDWSGDTTYYADSVKGRFTISRDYEKNTVYLQMNRLKPEDTAVYYCAAEYEFHEYDYWGQGTQVTVSS	high polyreactivity

Sequence	polyreactivity (PSR sort gate)
QVQLVESGGGLVQAGCSLRLSCAASGSSFYTYTMGWYRQAPGKERELVAAITWSGGSTYYADSVKGRFTISRDNAKNTVYLQMNSLKPEDTAVYFCNADQDYQAARPSGMDYWGQGTQVTVSS	low polyreactivity
QVQLVESGGGLVQAGCSLRLSCAASGSTFPYNAMGWYRQAPGKERELVATIDATGGSTSYADSVKGRFTISRDNAKNTVYLQMNSLKPEDTAVYYCAAVAYILYFYAYYLTYDYWGQGTQVTVSS	low polyreactivity
QVQLVESGGGLVQAGCSLRLSCAASGSVFTVYSMGWYRQAPGKERELVAAITRNGGRTYYADSVKVRFTISRDNSKNTVYLQMKILKPEDTAVYSCAATGLYSRLDYWGQGTQVTVSS	high polyreactivity
QVQLVESGGGLVQAGCSLRLSCAASGYIFYNAMGWYRQAPGKERELVAAITSGGSTNYADSVKGRFTISRDNAKNTVYFQMNSLKPEDTADYYCNAVVYSPYRYEYWGQGTQVTVSS	low polyreactivity
QVQLVESGGGLVQAGCSLRLSCDASGSIFTWYAIGWYRQAPGKERELVAAITRGGSTYADSVKGRFTISRDNAKNNVYLQMNSLKPEDSAVYYCAARRVPIRVGGYPYYYWGQGSQVTVSS	low polyreactivity
QVQLVESGGGLVQAGCSLRLSFAASGFSFRRYALGSYIPAPGKERELVAAITNSGGSTYYADSVKGRFTISRDNAKNSVYLQLNSLKPEDTAVYYCVALRSACAYDYWGQGTQVTVSS	high polyreactivity
QVQLVESGGGLVQAGCSLRLSFAASGRTLVPYSMGWYRQAPGKERELVAAKSSGGSTNYADSVKGRFTISRDNAKNTVYLQMNSLKPEDTAVYSCAAYDSVQKYWILGFDYWGQGTQVTVSS	low polyreactivity
QVQLVESGGGLVQAGCSLRLSSAASGSIFDDNALGRYRPAPGTDRELVAAISDNDGSTYYADSVKGRFTISRDNAKTTVYVQMNSLKADETAVYYCAATAQEWYPAVYNQYYYWGQGTQVTVSS	low polyreactivity
QVQLVESGGGLVQAGCSLRLSSPASGRIFWANVMGWYRQAPGKERELVAAISYSGTGTYYADSVKGRFTISPDYAKNTVYLQMNSLKPEDTAFYYFAKAPYIYYWGQGTHVTVSS	high polyreactivity
QVQLVESGGGLVQAGCSLRLSWAASGRIIKYNAMGWYRQAPGKERELVAVITSGGSTYYAYSVKGRFTISRDNAKNTVYLQMNSLKPEDTAVYYCAAGFGDGPGNGYYSRYSWDDDYWGQGTQVTVSS	low polyreactivity
QVQLVESGGGLVQAGCSLRLTCAASGFIFYYNAMGWYRQAPGKQKELVAAISWSDGGTYYADSVKGRFTISRDNAKNTVSLQMNRLKPEDTAVYYFSGDIDNWSEYDYWGQGTQVTVSS	low polyreactivity
QVQLVESGGGLVQAGCSRRLRCAASGFTFRLYAMGWSRQAPGKERELVAATTSGGSTYYADSVKGRFTISRDNAKNTVYLQMNSLKPEDTAVYYCNKLYRTSVEYDYWGQGTLVTVSS	high polyreactivity
QVQLVESGGGLVQAGCTLRLSSAASGRIYRYNVMGWSRQAPGKESELVAGISSGGSTNYADSVKGRFTISRDNAKNTVYLQMTSLKPEDTAVYFCSKRWLNAKPYGQAMYSWGQGTQVTVSS	high polyreactivity
QVQLVESGGGLVQAGFSLRLSCAASGNIYYKYAMGWYRQAPGKERELVAAITWRVVRTYYADSVKGRFTISRDNAKNTVYLQMNSLKPEDTAVYYCAALSRQSGDYWGQGTQVTVSS	high polyreactivity
QVQLVESGGGLVQAGFSLRLSCAASGSTFQSYTMGRSRQAPGKERELVAAISSSGGRTYYADSVKGRYTISRDYAKNTVYLQMNSLNPEDTAVYYCAAVSKSWRGATWYDYWGQGTQVTVSS	high polyreactivity
QVQLVESGGGLVQAGGCLRISCAASGSIFPFYVMGRYRQAPGKERELVAAITRSGGSTYYADSVKGRFTISRDNAKNTVYLQMNSLKPEDTAVYYCAKRPHHGSTKYNYWGQGTQVTVSS	low polyreactivity
